Experimental findings from patent US20090291081A1 (AbbVie / Abbott, published 2009) are described below.

Test [1] has as its target T1, human IL-1β (human, UniProt P01584 117-269). As to the kind of experiment: cell-based or functional assay.
The target of test [2] is T1, human IL-1β. As to the kind of experiment: cell-based or functional assay. This is another data set of the same source.
Test [3] deals with T1, human IL-1β. The test can be described thus: BIAcore kinetic analysis of the dAb.
For test [4], the target named is T1, human IL-1β. The test can be described thus: BIAcore kinetic analysis of the dAb. This is another data set of the same source. (In general: Surface plasmon resonance follows binding to a sensor surface in real time, without labels.)
The target of test [5] is T2, human IL-1α (human, UniProt P01583 113-271).
T2 construct: also called hIL-1α; rhIL-1 alpha
T2 sequence (looked up): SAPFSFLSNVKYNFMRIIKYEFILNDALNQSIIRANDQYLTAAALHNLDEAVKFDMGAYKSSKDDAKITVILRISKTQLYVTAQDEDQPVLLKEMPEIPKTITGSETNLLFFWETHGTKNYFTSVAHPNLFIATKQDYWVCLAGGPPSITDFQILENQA
As to the kind of experiment: BIAcore, IL-1α coated chip, dAb flowed over.

Test [6] concerns the target T2, human IL-1α. As to the kind of experiment: cell-based or functional assay.
In test [7] the target is T2, human IL-1α. As to the kind of experiment: method not given.
The target of test [8] is T2, human IL-1α. As to the kind of experiment: BIAcore, purified dAb.
Test [9] concerns the target T1, human IL-1β. As to the kind of experiment: Biacore, IgG captured by goat anti-human IgG Fc; rhIL-1 beta followed by rhIL-1 alpha. As to the method:
(§1) The antibody (1-5 ug/ml) was first captured on a goat anti human IgG FC surface.

For test [10], the target named is T1, human IL-1β. As to the kind of experiment: cell-based or functional assay. This is another data set of the same source.
The target of test [11] is T2, human IL-1α. The test can be described thus: cell-based or functional assay. The source holds these as a separate data set.
Test [12] concerns the target T1, human IL-1β. The test can be described thus: cell-based or functional assay. The source holds these as a separate data set.
For test [13], the target named is T2, human IL-1α. The test can be described thus: cell-based or functional assay. The source holds these as a separate data set.
Test [14] deals with T1, human IL-1β. The test can be described thus: Biacore, IgG captured by goat anti-human IgG Fc; rhIL-1 alpha 100 nM then rhIL-1 beta 200 nM. As to the method: as §1
Test [15] concerns the target T2, human IL-1α. Described as above. As to the method: as §1
The target in test [16] is T1, human IL-1β. As to the kind of experiment: Biacore, IgG captured by goat anti-human IgG Fc.
For test [17], the target named is T2, human IL-1α. As to the kind of experiment: Biacore, IgG captured by goat anti-human IgG Fc.
Test [18] addresses T2, human IL-1α. As to the kind of experiment: IL-1 Receptor Binding Assay.
For test [19], the target named is T2, human IL-1α. The test can be described thus: cell-based or functional assay. The source holds these as a separate data set.
The target of test [20] is T2, human IL-1α. As to the kind of experiment: BIAcore, purified dAb. The source holds these as a separate data set.
The target of test [21] is T1, human IL-1β. As to the kind of experiment: BIAcore kinetic analysis of the dAb. The source holds these as a separate data set.
Test [22] concerns the target T1, human IL-1β. As to the kind of experiment: BIAcore kinetic analysis of the dAb. The source holds these as a separate data set.
Test [23] deals with T1, human IL-1β. As to the kind of experiment: BIAcore kinetic analysis of the dAb. This is another data set of the same source.

Positions count from the first letter of the chain named. Values joined by “and” are separate entries in the source; they are usually repeats but may differ in a detail not shown here. Identical values can stand only once. Like-named read-outs stand apart in the source and are kept apart here. Bounds are passed on as bounds.

B1: ABT2-65 (other)
VH: EVQLLESGGGLVQPGGSLRLSCAASGFTFEDYQMGWVRQAPGKGLEWVSSISAMGNRTYYADSVKGRFTISRDDSKNTLYLQMNSLRAEDTAVYYCAKNLVRTQSKMWMFDYWGQGTLVTVSS
notes: dAb, VH, to IL-1β; also called dAb ABT2-65
In the case of B1, in the test with human IL-1β [1], the “MRC5 ND50” value is 266 nM. Also, in the test with human IL-1β [2], the “MRC5 ND10” value was found to be 100 nM and the “MRC5 ND50” value is 266 nM. In the test with human IL-1β [3], this molecule returned a dissociation constant Kd of 97 nM, a koff of 0.02 s⁻¹ and a kon of 250000 M⁻¹ s⁻¹.

B2: ABT2-108 (other)
VH: EVQLLESGGGLVQPGGSLRLSCAASGFTFAEYTMMWVRQAPGKGLEWVSRIGQDGKNTYYADSVKGRFTISRDNSKNTLYLQMNSLRAEDTAVYYCAKYTGRVGVHHLFDYWGQGTLVTSS
notes: dAb, VH, to IL-1β
In the test with human IL-1β [4], B2 registered a Kd of 110 nM, a koff of 0.0031 s⁻¹ and a kon of 29000 M⁻¹ s⁻¹. In addition, in the test with human IL-1β [2], the “MRC5 ND10” value turned out to be 150 nM and the “MRC5 ND50” value came to 250 nM.

B3: ABT1-95-3 (other)
VL: DIQMTQSPSSLSASVGDRVTITCRASQPIHGNLRWYQQKPGKAPKLLIYSSSYLQSGVPSRFSGSGSGTDFTLTISSLQPEDFATYHCQQGYRWPVTFGQGTKVEIKR
notes: dAb, Vκ, to IL-1α
As to B3, the figures for the Kd in the test with human IL-1α [5], with human IL-1α [7] and with human IL-1α [8] were 7 to 12 nM, 5 to 10 nM and 5.4 nM, respectively. The “MRC5 ND50” value with human IL-1α [6] worked out at 50 nM.

B4: ABT2-108-620x/ABT1-95-A3 hu IgG1/K mut (234; 235) (bispecific antibody, V domains shown)
VH: EVQLLESGGGLVQPGGSLRLSCAASGFTFAEESWMWVRQAPGKGLEWVSRIGQDGKNTYYREDVKGRFTISRDNSKNTLYLQMNSLRAEDTAVYYCAKYTGRIMGHHLFDYWGQGTLVTVSS
VL: B3 VL with Q27K, I29G, H30V, G31R, L33M, S51V, Q55E, S56P, Q89L, V96P
notes: hu IgG1/K mut (234)
On to B4, for which the stoichiometry is 0.98 with human IL-1β [9], 0.9 with human IL-1β [14] and 2 with human IL-1α [15]. Further, the “IC50 (MRC-5 neutralization assay)” value was 0.00558 nM in the test with human IL-1β [10] and under 0.001 nM with human IL-1α [11]. Further, the “MRC-5 IL-1a inhibition assay EC50” value with human IL-1α [11] came out at 0.00446 nM. Further, in the test with human IL-1β [12], the “IL-1β IC50” value is 0.0073 nM. For the same molecule, the “IL-1α IC50” value with human IL-1α [13] was 0.002 nM. The Kd with human IL-1β [16] was 0.446 nM and 0.361 nM; with human IL-1β [16] (mean), 0.404 nM; with human IL-1α [17], 0.0887 nM and 0.0835 nM. The koff with human IL-1β [16] is 0.000138 s⁻¹ and 0.000102 s⁻¹; in the test with human IL-1β [16] (mean), 0.00012 s⁻¹; with human IL-1α [17], 4.25e-05 s⁻¹ and 4.11e-05 s⁻¹. The kon in the test with human IL-1β [16] is 315000 M⁻¹ s⁻¹ and 283000 M⁻¹ s⁻¹; with human IL-1β [16] (mean), 299000 M⁻¹ s⁻¹; with human IL-1α [17], 479000 M⁻¹ s⁻¹ and 492000 M⁻¹ s⁻¹.

B5: ABT1-95-8 (other)
VL: B3 VL with H30Q, Q55E, S56R
notes: dAb, Vκ, to IL-1α
In the test with human IL-1α [18], B5 gave an IC50 of 1 nM. For the same molecule, the “MRC5 ND50” value with human IL-1α [6] stood at 0.9 nM. Further, binding with human IL-1α [7] was characterised by a dissociation constant (Kd) of 0.9 nM.

B6: ABT1-95-15 (other)
VL: B3 VL with H30V, G31R, Q55E, S56P
notes: dAb, Vκ, to IL-1α
In the test with human IL-1α [19], B6 displayed an ND50 of 45 pM. The molecule also returned a Kd with human IL-1α [20] of 0.67 nM.

B7: ABT1-95-14 (other)
VL: B3 VL with H30V, G31K, Q55E, S56R
notes: dAb, Vκ, to IL-1α
For B7, in the test with human IL-1α [19], the ND50 was 250 pM. Also, the “MRC5 ND50” value with human IL-1α [6] was determined as 0.25 nM. This molecule showed a Kd with human IL-1α [20] of 1.2 nM.

B8: ABT1-95-13 (other)
VL: B3 VL with H30V, G31R, Q55E, S56R
notes: dAb, Vκ, to IL-1α
The molecule B8 displayed an ND50 with human IL-1α [19] of 120 pM. In the test with human IL-1α [6], the “MRC5 ND50” value worked out at 0.11 nM. In the test with human IL-1α [20], this molecule displayed a Kd of 0.95 nM.

B9: ABT2-46 (other)
VL: DIQMTQSPSSLSASVGDRVTITCRASQSIIEWLSWYQQKPGKAPKLLIYRTSVLQSGVPSRFSGSGSGTDFTLTISSLQPEDFATYYCQQNEFWPFTFGQGTKVEIKR
notes: dAb, Vκ, to IL-1β; also called dAb ABT2-46
For B9, in the test with human IL-1β [2], the “MRC5 ND10” value came to 70 nM and the “MRC5 ND50” value was 386 nM. Also, in the test with human IL-1β [21], binding was characterised by a dissociation constant (Kd) of 2800 nM, the koff was determined as 0.063 s⁻¹ and the kon worked out at 23000 M⁻¹ s⁻¹.

B10: ABT2-76 (other)
VL: B9 VL with I30D, E31R, S34A, T51G, V53I, N91V, E92A, F96P
notes: dAb, Vκ, to IL-1β; also called dAb ABT2-76
On to B10, for which, in the test with human IL-1β [2], the “MRC5 ND10” value is 50 nM and the “MRC5 ND50” value stood at 456 nM. In the test with human IL-1β [22], binding was put at a Kd of 1300 nM, the koff was found to be 0.027 s⁻¹ and the kon came to 20000 M⁻¹ s⁻¹.

B11: ABT2-42 (other)
VL: B9 VL with S28Y, I30E, E31K, S34T, K45T, T51G, V53L, N91T, F93Y
notes: dAb, Vκ, to IL-1β; also called dAb ABT2-42
Regarding B11, in the test with human IL-1β [23], the Kd stood at 54000 nM, the koff amounted to 0.13 s⁻¹ and the kon amounted to 2500 M⁻¹ s⁻¹. Further, in the test with human IL-1β [2], the “MRC5 ND10” value amounted to 100 nM and the “MRC5 ND50” value was 770 nM.

By Kd is commonly meant the free concentration of one partner at which half of the binding sites on the other are occupied at equilibrium, for simple one-to-one binding. High values mean weaker binding, low ones tighter binding. What is called koff is a measure of how fast the partners let go of each other. A low value points to a long-lived complex. What is called kon is a measure of how fast the partners come together. Read a high kon as fast association. In general, IC50 refers to the concentration that gives 50% inhibition. A high value points to lower potency.
